{"source": "paper PMC3552960", "key": {"[1]": {"molecular_target": "CCR5 Thr^2.56(82)Lys/Arg^6.32(225)Gln double-mutant receptor (human) (UniProt P51681)"}, "[2]": {"molecular_target": "wild type human CCR5 chemokine receptor (human) (UniProt P51681)"}, "[3]": {"molecular_target": "CCR5 Thr^2.56(82)Pro/Arg^6.32(225)Gln double-mutant receptor (human) (UniProt P51681)"}, "[4]": {"molecular_target": "CCR5 Thr^2.56(82)Pro mutant receptor (human) (UniProt P51681)"}, "[5]": {"molecular_target": "CCR5 Thr^2.56(82)Lys mutant receptor (human) (UniProt P51681)"}}, "data": [{"substance": "HIV-1C Du151 gp150 envelope glycoprotein (Env), carboxy-terminally truncated (natural protein)", "values": [{"measurement": "Env-directed cell fusion (luciferase) on HOS-CD4-Luc cells; maximum fusion", "setting": "[1]", "value": 16.8, "unit": "% wild type"}, {"measurement": "Env-directed cell fusion (luciferase) on HOS-CD4-Luc cells; maximum fusion efficiency (fusion coefficient) (fusion coefficient)", "setting": "[1]", "value": 1.9}, {"measurement": "Env-directed cell fusion (luciferase) on HOS-CD4-Luc cells; maximum fusion efficiency (fusion coefficient: luciferase activity divided by mean fluorescence) (fusion coefficient)", "setting": "[2]", "value": 11.8}, {"measurement": "Env-directed cell fusion (luciferase) on HOS-CD4-Luc cells; maximum fusion", "setting": "[3]", "value": 135, "unit": "% wild type"}, {"measurement": "Env-directed cell fusion (luciferase) on HOS-CD4-Luc cells; maximum fusion efficiency (fusion coefficient) (fusion coefficient)", "setting": "[3]", "value": 18.8}, {"measurement": "Env-directed cell fusion (luciferase) on HOS-CD4-Luc cells; maximum fusion", "setting": "[4]", "value": 135, "unit": "% wild type"}, {"measurement": "Env-directed cell fusion (luciferase) on HOS-CD4-Luc cells; maximum fusion efficiency (fusion coefficient) (fusion coefficient)", "setting": "[4]", "value": 16.5}, {"measurement": "Env-directed cell fusion (luciferase) on HOS-CD4-Luc cells; maximum fusion", "setting": "[5]", "value": 4.6, "unit": "% wild type"}, {"measurement": "Env-directed cell fusion (luciferase) on HOS-CD4-Luc cells; maximum fusion efficiency (fusion coefficient) (fusion coefficient)", "setting": "[5]", "value": 0.84}]}]}
